From patent US20260125457A1 (Janssen / Centocor, published 2026)
Residue numbers refer to the chain shown, from its start.

T1: 22 amino acid CALRmut-specific peptide (acetylation of the terminal amino-group; C-terminal -OH group)
T1 construct: also called 22aa CALRmut peptide; CALRmut target peptide
T1 peptide: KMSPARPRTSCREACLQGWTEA

T2: HIS-CALRdel52 (produced in E. coli)
T2 construct: also called recombinant CALRdel52 protein; CALRdel53 target protein
T2 chain: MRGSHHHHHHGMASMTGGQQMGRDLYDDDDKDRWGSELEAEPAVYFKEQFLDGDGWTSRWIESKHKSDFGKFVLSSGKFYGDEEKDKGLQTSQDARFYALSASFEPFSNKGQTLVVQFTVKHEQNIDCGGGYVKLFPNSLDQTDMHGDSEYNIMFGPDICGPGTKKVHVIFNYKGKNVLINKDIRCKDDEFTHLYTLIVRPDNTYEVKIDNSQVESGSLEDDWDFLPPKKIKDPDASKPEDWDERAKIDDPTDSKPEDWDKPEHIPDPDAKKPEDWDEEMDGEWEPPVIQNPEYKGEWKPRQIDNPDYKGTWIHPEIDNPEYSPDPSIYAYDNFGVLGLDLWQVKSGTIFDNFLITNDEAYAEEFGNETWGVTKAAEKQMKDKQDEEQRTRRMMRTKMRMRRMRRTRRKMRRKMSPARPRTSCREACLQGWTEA

B1: Clone 16 (Fab, V domains shown)
VH: QEQLKESGGRLVTPGTPLTLTCTASGFSLSNYYMSWVRQAPGKGLEWIGGISSRAGTWYASWAKGRFTISGTSTTMDLKITSPTTEDTATYFCARGLKIWGPGTLVTVSS
VL: DPVLTQTESPVSAAVGGTVTINCQASQSVYDDNNLAWYQQKPGQPPKRLIYPASTLASGVSSRFSGSGSGSQFTLTISDVQCDDAATYYCQGEFSCTSADCVAFGGGTEVVVK
notes: Rabbit/human chimeric Fab (human CH1, CK) on phage; also soluble Fab-AP
B2: Clone 1 (Fab, V domains shown)
VH: QEQLKESGGRLVTPGTPLTLTCAVSGFSLDIYGMSWVRQAPGKGLEWIGIIYIEGITYYANWAKGRFTISKTSSTTLELKMTSLTTEDTAMYFCVAGVGRIWGPGTLVTVSS
VL: YVMMTQTPSSVSAAVGGTVTINCQASQSLYNNNNLAWFQQKPGQPPKRLIYPASTLASGVSSRFKGSGSGTQFTLTISDVQRDDAATYFCLGEFSCSSADCYAFGGGTEVVVK
notes: as for B1
B3: Clone 18 (Fab, V domains shown)
VH: QSVEESGGRLVTPGTPLTITCTVSGFSLSSYAMSWVRQAPGKGLEWIGVIDSGGTTYYATWAKSRFTISKTQTKVALKITSPTTEDTATYFCARESYAGYDGYGHPIPYGMDPWGPGTLVTVSS
VL: DVVMTQTPSSVSAAVGGTVTINCQASQSLYNNKNLAWYQQKPGQPPKLLIYYASALASGVSSRFKGSGSGTQFTLTISGVQCDDAATYYCQGEFNCNSADCNSFGGGTEVVVK
notes: as for B1
B4: Clone 4 (Fab, V domains shown)
VH: QEQLEESGGRLVTPGTPLTLTCKVSGIDLSNNAISWVRQAPGKGLEYIGVIGNTGDTYYASWAKGRFTISKTSSTTVDLKMTSLTTEDTATYFCVRGPPSYSNSVKNIWGPGTLVTISS
VL: DPMLTQTPSSVSAAVGGTVTINCQSSQSVYNNNWLSWLQQKPGQPPNRLIYDASKLESGVPSRFSGSGSGTQFTLTISGVQRDDAATYYCAGGFTGNVYTFGGGTEVVVK
notes: as for B1
B5: Clone 11 (Fab, V domains shown)
VH: B4 VH with E5K, T13A, T19R, K23T, I34V, D56T, S61N, E87D, I117V
VL: B4 VL with S10P, S25A, S36T, L38Y, E57A, S69F, R82C, G92A, F94W, T100S
notes: as for B1
B6: Clone 22 (Fab, V domains shown)
VH: QQLEESGGRLVTPGTPLTLTCTVSGIDLSNNAMSWVRQAPGKGLEYIGVIGNTGTTYYASWAKGRFTISKTSSTTVDLKMTSLTTEDTATYFCVRGPPSYSNSVKNIWGPGTLVTIS
VL: B4 VL with M3V, R82C
notes: as for B1
B7: Clone 20 (Fab, V domains shown)
VH: QSLEESGGRLVTPGTPLTLTCTVSGIDLSNNAISWVRQAPGKGLEYIGVIGNTGDTYYASWAKGRFTISKTSSTTVDLKMTSLTTEDTATYFCVRGPPSYSNSVKNIWGPGTLVTISS
VL: DPMLTQTPSSVSAAVGGTVTIGCQSSQSVYDKNWLSWYQQKPGQPPSRLIYDASKLESGVPSRFSGSGSGTQFTLTISGVQCDDAATYYCAGGFTGNVYAFGGGTKLEIK
notes: as for B1
B8: Clone 17 (Fab, V domains shown)
VH: B4 VH with K23T, I34M, D56T, S61N, T75A, E87D, I117V
VL: B4 VL with P2V, N31D, N32K, N47S, R82C, E106K
notes: as for B1
B9: Clone 7 (Fab, V domains shown)
VH: B7 VH with S2Q, T12A, T18R, I33V, D55T, S60N, E86D, K105R, I116V
VL: B7 VL with K32N, S47N, E57A, Q81K, F94Y, A100S, K106M, L107V
notes: as for B1
B10: Clone 15 (Fab, V domains shown)
VH: B7 VH with S2Q, D55T, T85A, E86S
VL: B4 VL with P2V, M3V, L4M, R82C
notes: as for B1
B11: Clone 21 (Fab, V domains shown)
VH: B4 VH with E5K, T13A, T19R, K23T, I34V, D56T, S61N, E87D
VL: B7 VL with P2V, M3V, L4M, K106M, L107V
notes: as for B1
B12: Clone 10 (Fab, V domains shown)
VH: B7 VH with L3V
VL: B7 VL with A85V, K106E, L107V, E108V, I109V
notes: as for B1
B13: Clone 2 (Fab, V domains shown)
VH: B7 VH with L3V, D55T, T85A, E86S, I116V
VL: B7 VL with S78G
notes: as for B1

Legend:
[1] = molecular target: T1, 22 amino acid CALRmut-specific peptide; experiment: phage ELISA; QC ELISA of soluble Fab-AP
[2] = molecular target: T2, HIS-CALRdel52 (produced in E. coli); experiment: QC monoclonal phage ELISA
Excerpt: Next, recombinant CALRdel52 protein (SEQ ID NO: 5) and the 22 amino acid CALRmut peptide (SEQ ID NO: 1) were used for selecting specific binders from the immune rabbit/human Fab library prepared above. By DNA sequencing, 15 unique Fabs were identified and specific binding to the CALRmut target peptide was confirmed by phage ELISA and by QC ELISA after soluble expression of Fab-AP (Fab-conjugated to Alkaline Phosphatase).

| Binder | binding result [1] | phage ELISA signal (Coating: CALR) [2] |
| --- | --- | --- |
| B1 | binds | 2.94 |
| B2 | binds | 2.92 |
| B3 | binds | 1.91 |
| B4 | binds | 2.54 |
| B5 | binds | – |
| B6 | binds | – |
| B7 | binds | 2.69 |
| B8 | binds | 2.23 |
| B9 | binds | – |
| B10 | binds | – |
| B11 | binds | – |
| B12 | binds | 2.18 |
| B13 | binds | 2.87 |
